# Assay results: the DeepSol protein solubility set
# Experiment: soluble on expression in E. coli; label from the status in PepcDB or PDB records
row,Sequence,soluble on expression in E. coli
1,MDNEKKSMYEPGVILGGCTLRRQLNDSGEAMVFLAESGNEEKKEVIIKFFKCGYGEDEIKYLDVLTNHEQRRNIVEMLKSFETPEIRLGMVFKRYETDLFGILGDRQRLQPSTIQKYMKGLMEGLQFIHRMDYIHRDIKPENLLIDGETICIADFGETVLSTSDKVVKPGTLPYLTIEHILGYKENTKSMDIWAAACVLGAMFQGSHLFSQNSNLQTIHAIRLLLGNHTKETWPEMDKLPLMQSIELPPVGEKTFSKIENITKEAADLMEQMMKYDPTKRLMASQVLNHEYFKKEASAQAN,not soluble
2,MIKFGTGGWRAFIGEEFTKDNVRLVAQALANIIHHEQAANEGFVIGYDRRFLSDKAGRWFAEVLAANGVVVSFIDKFVPTPVVMFKAKAMDCAYSACITASHNPADYNGIKVFIRGGRDADEVITQKIEQQIATLTLQDVKSIDFDQAVNDKLIDIINPMNEFVDSIINFIDIEAIKKANLRVLIDPMFGVAKNALQTVLINGRCDVDVINDGKNPDFGGLMPSPSAATLYRLKHLVKHEGYDIGIGTDGDADRLGIIDEKGNFIHPNEVLILLYYYLLEYKGWKGSVVRNIATTHLLDKIAADHGERCFEVPVGFKHISSQMEADDSLIGGESSGGLTIRGHIKGKDGVFASSLLVEMISVTGKKLSELLTEIYDRYGYAYTAEGDCKFKPAQRDEIYNKVYIEKKLPEFEFDIDKVSYEDGAKVYFKNGGWVIARFSGTEPLLRIFAEMADKDTAERVLQQMKAFLAL,not soluble
3,GPGSMIARAIANRAACTFLNISSSSLMSKWMGDGEKLVRCLFAVATVKQPSVIFIDEIDSLLSMRGEGETDSVRRVKTEFLVQLDGVATDRGDRVLLIGATNRPDELDEAARRRMEKRLYIPLPDEAARRELIQRLLKSLGPSEAGEDGAIGNAGEAASTATATTTTQVTHTLTDADLDTLVRSTDGYSGADLKQLCREAAMGPLREMSIMQLSAVAAADLRPVQRKDFRQALKRLKPSVGPAEVQRYVEWNKLFGSFNEHDDDDDDELEHHEGHGAC,soluble
4,MGLYEKIVNKEEKISVIGLGYVGMPLAIAFAKYAQVIGFDVDKKKIEIYKSGIDPTKEIGNEAIKNTTVEFTSDETKLKEAKFHIVAVPTPINIDKTPDLTPVESASVIVGRNMARGSYVVYESTVYPGVTEDICIPILERESGLKCGVDFKVGYSPERINPGDKKHTLETIKKIVSAIDDESLDEIAKIYSLVIKAGVHKTSSIKVAEAAKVVENSQRDINIAFMNELAMVFDRMGIDTKEVIDAMNTKWNALGFYPGLVGGHCIGVDPYYFIYQAEKLGYHSQIILSGRKINDGMGEFIANTIIKKLIHVNKVVKKSKVVIFGITYKENCPDTRNSKVVDIIKGLNEYGIEPIVVDPQANREDTKQEYGIELMDIDDVKDADCLVFAVAHDEFKNMAWEQIEKFFKNIDNSEKVIIDVKGIFDKNKIEKLGYCYWRL,soluble
5,MNNDKLQRMVENLSEEKFGRTFRHCAYFNKRLRTTGGRYLLKSHDIEINPKQYEHYGEDAVVKIILHELCHYHLHIAGKGYQHKDQDFKRLSQQVGAPRFCNSIESYQQRANYEYYCTKCHAKYIRIRKVDTNRMRCGHCNGKLRMKRQLK,not soluble
6,MSLADKATIYIIDDDEIFQFITRKSFERLERNDNLFFFLNGEDALSSIKEAISGNKPSPDLIFLDINMPIMDGWDFLAELIKLEGEMKKTPQIYMVSSSIDDKDLIKSKTYNMIKDYIVKPIKDTHIKELLNNLNEGHHHHHH,soluble
7,MAKKSSGSAPSRASGRSGKQTTHFQVVHDATKHRAKRSKSSKSGDSKSSSQDASVKKILDHKLFNTHYVEYNVLLSNGRKMMATEFDFEGKKEQKLLADYKYKITNQDDDPDEDFAVEKIIAHRFSGKKNKPLFLVMWRGYPNPVSHSEMWENELSNCKDLLEAYKDSHDMKPPPVKKSNKKKGSKKSPKKSAKSKDDDSSDEEEEEEVKEKSPKKSSKSTKRAASDDDEEEEPVATKKSKKSKRAETPEEEDDEEEEVVKTPKKTKKSKRAETPEEEDEVEEEVVKTPKKSKSSKSPKKSKRAETSDEEDEDEEDEKEAPKSSKKQEKAKSSKRVAEDSGNEEEDQDNTSGSGSEGEEEEEEASSNGKRKSRH,not soluble
8,MGSDKIHHHHHHLKVVCISDTHEQLHNVTVPDGDVLIHAGDFTNNGKREELIKFNEEMTRFPHKYKLVVAGNHELGFDHDENQGERQDADKGLGTEDGYNILTNVTYLQDKGVTIDGVTFFGSSYHPLRGFPFYRNRAEQLAECWKAVPNDTNVLITHTPPLGYLDQFGDERWGCRDLLKTVERIQPAYHIFGHVHEQHGVLSNGNTVCYKLYENEF,not soluble
